Assay results as given in patent US20200040057A1 (IMMATICS BIOTECHNOLOGIES, published 2020).

Each binder was assayed against HLA-B*07 (human) (assay: UV peptide exchange ELISA; +++ = yield >50).

Binder	peptide exchange yield
APCNGNVAV	50 to 75%
HVRPQTNCI	50 to 75%
HPSQESPTL	50 to 75%
GPASDHPSL	50 to 75%
SALPTTISF	50 to 75%
MPMQDIKMI	50 to 75%
MPMQDIKMILKM	50 to 75%
APVGGNVTSSF	50 to 75%
TSPLPPTV	50 to 75%
LPMSKRQEY	50 to 75%

Each binder was assayed against HLA-B*07 (human) (assay: UV peptide exchange ELISA; ++ = yield >20%).

Binder	peptide exchange yield
RTKEEINEL	20 to 50%
MAGPAIHTAPM	20 to 50%
REPIMKADML	20 to 50%
FVPPSGPSNPM	20 to 50%
SPAKQFNIY	20 to 50%
MTLPATTLTL	20 to 50%
GAYDKARYL	20 to 50%
LPELPTTLTF	20 to 50%
YGPYGSGSGW	20 to 50%
SVPVATVEL	20 to 50%
IPVSHPVLTF	20 to 50%
ASKILETSL	20 to 50%
VIINNPISL	20 to 50%
KIIASGNHL	20 to 50%
HAAASFETL	20 to 50%
IPFADVKSF	20 to 50%
RPSGTAGAALLA	20 to 50%
SPFWIHQA	20 to 50%
KPRGPIDI	20 to 50%
IPENRVVSY	20 to 50%
IPVAIKEL	20 to 50%
KAHVRIEL	20 to 50%

Binder	peptide exchange yield
MARTGGMVVI	20 to 50%
VPAHLVAA	20 to 50%
APAAPAAVPS	20 to 50%
SVIGPNSRL	20 to 50%
SQRPPATSQA	20 to 50%
EPLSVTASY	20 to 50%
FTVSSSSAM	20 to 50%
TDTPSTTPTTI	20 to 50%
MPPLLIVAF	20 to 50%
MALSVLRLAL	20 to 50%
SPLIGDFPAF	20 to 50%
IALMKLAGPL	20 to 50%
LPPHIFAI	20 to 50%
AAHEFGHVL	20 to 50%
TVYGEPRKL	20 to 50%
LPLLAGTLLL	20 to 50%
LPMPAITWY	20 to 50%
EPNPVEEIF	20 to 50%
LPASAEPKGTM	20 to 50%
TPTRPLPSA	20 to 50%
MPEADLKRIF	20 to 50%
IAYPSLREAAL	20 to 50%
